This assay addresses histone H3 trimethylated at lysine 9 (H3K9me3) in chromatin of NIH-3T3 cells (UniProt P68433).

Results on 2 substances are retold here after US20240425848A1.

Consider TnH #3: 112aaCD (HP1α)-3×(TGS)-Tn5, for which the score: coefficient of the linear model for the difference between TnH and Tn5 enrichment (scGET-seq, NIH-3T3), region chrUn JH584304:0-114452, cell group 0 (G1/S) is 0.198.
For “TnH #3: 112aaCD (HP1α)-3×(TGS)-Tn5 (enzyme)”, the score: coefficient of the linear model for the difference between TnH and Tn5 enrichment (scGET-seq, NIH-3T3), region chrUn JH584304:0-114452, cell group 1 (G2/M) was -0.133; the score: coefficient of the linear model for the difference between TnH and Tn5 enrichment (scGET-seq, NIH-3T3), region chrUn JH584304:0-114452, cell group 2 (G2/M) is -0.105; the score: coefficient of the linear model for the difference between TnH and Tn5 enrichment (scGET-seq, NIH-3T3), region chrUn JH584304:0-114452, cell group 3 (G1/S) came to 0.329; the score: coefficient of the linear model for the difference between TnH and Tn5 enrichment (scGET-seq, NIH-3T3), region chrUn JH584304:0-114452, cell group 4 (G1/S) is 0.067. The score: coefficient of the linear model for the difference between TnH and Tn5 enrichment (scGET-seq, NIH-3T3), region chrUn JH584304:0-114452, cell group 5 (G2/M) was -0.146; the score: coefficient of the linear model for the difference between TnH and Tn5 enrichment (scGET-seq, NIH-3T3), region chrUn JH584304:0-114452, cell group 6 (G1/S) came to 0.138; the score: coefficient of the linear model for the difference between TnH and Tn5 enrichment (scGET-seq, NIH-3T3), region chrUn JH584304:0-114452, cell group 7 (G2/M) was -0.189; the score: coefficient of the linear model for the difference between TnH and Tn5 enrichment (scGET-seq, NIH-3T3), region chrUn JH584304:0-114452, cell group 8 (G2/M) was -0.287. Also, the score: coefficient of the linear model for the difference between TnH and Tn5 enrichment (scGET-seq, NIH-3T3), region chrUn JH584304:0-114452, cell group 9 (G1/S) is -0.523; the score: coefficient of the linear model for the difference between TnH and Tn5 enrichment (scGET-seq, NIH-3T3), region chrUn JH584304:0-114452, cell group 10 (G2/M) was -0.073; the score: coefficient of the linear model for the difference between TnH and Tn5 enrichment (scGET-seq, NIH-3T3), region chrUn JH584304:0-114452, cell group 11 (G1/S) was -0.457; the score: coefficient of the linear model for the difference between TnH and Tn5 enrichment (scGET-seq, NIH-3T3), region chrUn JH584304:0-114452, cell group 12 (G1/S) came to 0.163. Further, the score: coefficient of the linear model for the difference between TnH and Tn5 enrichment (scGET-seq, NIH-3T3), region chrUn JH584304:0-114452, cell group 13 (G2/M) was -0.528; the score: coefficient of the linear model for the difference between TnH and Tn5 enrichment (scGET-seq, NIH-3T3), region chrUn JH584304:0-114452, cell group 14 (G2/M) is -0.28; the score: coefficient of the linear model for the difference between TnH and Tn5 enrichment (scGET-seq, NIH-3T3), region chrUn JH584304:0-114452, cell group 15 (G1/S) is -0.47; the score: coefficient of the linear model for the difference between TnH and Tn5 enrichment (scGET-seq, NIH-3T3), region chrUn JH584304:0-114452, cell group 16 (G1/S) amounted to 0.576. The score: coefficient of the linear model for the difference between TnH and Tn5 enrichment (scGET-seq, NIH-3T3), region chrUn JH584304:0-114452, cell group 17 (G2/M) worked out at 0.468; the score: coefficient of the linear model for the difference between TnH and Tn5 enrichment (scGET-seq, NIH-3T3), region chrUn JH584304:0-114452, cell group 18 (G1/S) is -0.089; the score: coefficient of the linear model for the difference between TnH and Tn5 enrichment (scGET-seq, NIH-3T3), region chrUn JH584304:0-114452, cell group 19 (G1/S) is -0.129; the score: coefficient of the linear model for the difference between TnH and Tn5 enrichment (scGET-seq, NIH-3T3), region chrUn JH584304:0-114452, cell group 20 (G2/M) was -0.011. Further, the score: coefficient of the linear model for the difference between TnH and Tn5 enrichment (scGET-seq, NIH-3T3), region chrUn JH584304:0-114452, cell group 21 (G2/M) turned out to be 0.138.
